Test results reported in patent US20140087995A1 (published 2014).
Numbered stars: 1 amine (or outer) side, 2 acyl side, 3 side chain; on linkers, the order of the positions; unused ones are H or OH. Bridge positions count the residues as written; N and C are the ends. Side chains are listed from the residue outwards. Ends that are not written are not given here. * marks the point of attachment. C20 diacid = O=C(O)CCCCCCCCCCCCCCCCCCC(=O)*; γGlu = O=C(O)[C@H](CCC(=O)[*:2])N[*:1]

T1: human calcitonin receptor (human, UniProt P30988 25-474)
T1 construct: whole, on cells; Membranes of a BHK tk'ts 13 cell line stably transfected with the human calcitonin receptor; also called hCTR; hCT
T1 sequence (looked up): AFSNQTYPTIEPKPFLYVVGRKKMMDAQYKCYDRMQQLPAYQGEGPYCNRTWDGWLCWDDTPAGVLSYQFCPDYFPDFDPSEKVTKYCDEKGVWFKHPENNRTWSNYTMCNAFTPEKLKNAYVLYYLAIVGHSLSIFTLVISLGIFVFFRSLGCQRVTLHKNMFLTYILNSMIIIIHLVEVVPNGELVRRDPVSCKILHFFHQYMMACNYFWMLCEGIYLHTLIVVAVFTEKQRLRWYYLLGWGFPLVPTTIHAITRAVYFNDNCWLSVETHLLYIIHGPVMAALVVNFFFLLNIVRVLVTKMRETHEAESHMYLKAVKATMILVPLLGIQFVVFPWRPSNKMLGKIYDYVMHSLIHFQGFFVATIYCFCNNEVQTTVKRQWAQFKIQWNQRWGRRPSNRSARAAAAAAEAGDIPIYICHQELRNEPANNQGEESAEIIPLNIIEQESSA

T2: rat calcitonin receptor (rat, UniProt P32214 25-516)
T2 construct: whole, on cells; Membranes of BHK tk'ts 13 cells transiently transfected with the rat calcitonin receptor; also called rCTR; rat calcitonin (a) receptor
T2 sequence (looked up): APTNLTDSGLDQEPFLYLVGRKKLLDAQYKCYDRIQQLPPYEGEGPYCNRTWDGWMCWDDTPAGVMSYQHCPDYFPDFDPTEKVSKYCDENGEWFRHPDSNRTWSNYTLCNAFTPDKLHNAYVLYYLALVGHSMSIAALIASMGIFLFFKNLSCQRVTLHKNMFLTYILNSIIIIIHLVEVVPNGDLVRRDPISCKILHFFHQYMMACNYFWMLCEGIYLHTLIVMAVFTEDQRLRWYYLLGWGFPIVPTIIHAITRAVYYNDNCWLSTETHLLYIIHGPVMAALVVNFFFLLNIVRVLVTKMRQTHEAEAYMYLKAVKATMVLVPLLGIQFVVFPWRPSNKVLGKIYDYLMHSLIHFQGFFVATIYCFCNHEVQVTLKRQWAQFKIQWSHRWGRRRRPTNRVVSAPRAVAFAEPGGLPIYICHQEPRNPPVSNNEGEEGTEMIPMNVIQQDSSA

T3: rat amylin receptor (rat calcitonin receptor + rat RAMP 3) (rat, UniProt P32214 25-516; Q9JJ73 23-147)
T3 construct: whole, on cells; Membranes of BHK tk'ts 13 cells transiently transfected with the rat calcitonin receptor and rat RAMP 3; also called rAmylin-R; rat amylin 3(a) receptor
T3 sequence (looked up) 1: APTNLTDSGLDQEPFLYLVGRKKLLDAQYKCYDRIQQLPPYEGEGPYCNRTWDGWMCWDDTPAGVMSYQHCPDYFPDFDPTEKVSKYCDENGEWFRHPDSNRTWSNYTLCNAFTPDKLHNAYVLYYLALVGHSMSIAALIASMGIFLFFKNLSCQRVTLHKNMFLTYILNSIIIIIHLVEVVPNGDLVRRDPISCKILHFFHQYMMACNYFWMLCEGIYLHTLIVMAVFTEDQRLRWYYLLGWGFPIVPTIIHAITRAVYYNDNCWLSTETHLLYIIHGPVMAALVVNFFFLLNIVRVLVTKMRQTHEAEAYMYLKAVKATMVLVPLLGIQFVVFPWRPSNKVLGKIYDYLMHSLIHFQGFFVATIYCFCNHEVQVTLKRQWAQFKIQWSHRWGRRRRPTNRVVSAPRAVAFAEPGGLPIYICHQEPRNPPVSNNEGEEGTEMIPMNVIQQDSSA
T3 sequence (looked up) 2: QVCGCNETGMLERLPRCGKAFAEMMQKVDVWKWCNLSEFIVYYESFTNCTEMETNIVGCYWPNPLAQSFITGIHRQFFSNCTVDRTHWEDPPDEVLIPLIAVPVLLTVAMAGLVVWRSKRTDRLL


Experiments:
[1] = target: T1, human calcitonin receptor; assay: IC50 at hCTR divided by IC50 at hAmylin-R (reference)
Summary of the method: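 Membranes (35 ng/μL final) + SPA beads, 50 mM Hepes pH 7.4 buffer with 1 mM CaCl2, 5 mM MgCl₂, 0.1% OA, 0.02% Tween20; 120 min, 25° C, shaking; centrifuged, counted; IC₅₀ by one-site binding competition.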

rat calcitonin receptor [2] = target: T2, rat calcitonin receptor; assay: IC50 at rCTR divided by IC50 at rAmylin-R (reference)
rat calcitonin receptor [3] = target: T2, rat calcitonin receptor; assay: SPA competition vs 125I-calcitonin, membranes with rat CTR (Assay VIII)
[4] = target: T3, rat amylin receptor (rat calcitonin …); assay: SPA competition vs 125I-rat amylin, membranes with rat CTR + rat RAMP3 (Assay VI)

Row | Binder | Ratio hCT/hAmylin binding [1] | Ratio rCT/rAmylin binding (rat calcitonin receptor [2]) | IC50 (rat calcitonin receptor [3]) | IC50 [4]
1 | K([γGlu-γGlu-C20 diacid])CNTATCATQRLADFLRHSSPNFGAIPSSTNVGSDTY-NH2 (disulfide 2-7; N-terminus assumed; SMILES CC[C@H](C)[C@H](NC(=O)[C@H](C)NC(=O)CNC(=O)[C@H](Cc1ccccc1)NC(=O)[C@H](CC(N)=O)NC(=O)[C@@H]1CCCN1C(=O)[C@H](CO)NC(=O)[C@H](CO)NC(=O)[C@H](Cc1c[nH]cn1)NC(=O)[C@H](CCCNC(=N)N)NC(=O)[C@H](CC(C)C)NC(=O)[C@H](Cc1ccccc1)NC(=O)[C@H](CC(=O)O)NC(=O)[C@H](C)NC(=O)[C@H](CC(C)C)NC(=O)[C@H](CCCNC(=N)N)NC(=O)[C@H](CCC(N)=O)NC(=O)[C@@H](NC(=O)[C@H](C)NC(=O)[C@@H]1CSSC[C@H](NC(=O)[C@@H](N)CCCCNC(=O)CC[C@H](NC(=O)CC[C@H](NC(=O)CCCCCCCCCCCCCCCCCCC(=O)O)C(=O)O)C(=O)O)C(=O)N[C@@H](CC(N)=O)C(=O)N[C@@H]([C@@H](C)O)C(=O)N[C@@H](C)C(=O)N[C@@H]([C@@H](C)O)C(=O)N1)[C@@H](C)O)C(=O)N1CCC[C@H]1C(=O)N[C@@H](CO)C(=O)N[C@@H](CO)C(=O)N[C@H](C(=O)N[C@@H](CC(N)=O)C(=O)N[C@H](C(=O)NCC(=O)N[C@@H](CO)C(=O)N[C@@H](CC(=O)O)C(=O)N[C@H](C(=O)N[C@@H](Cc1ccc(O)cc1)C(N)=O)[C@@H](C)O)C(C)C)[C@@H](C)O, modifications are with respect to human amylin; also called compound 2) | 47.5 | 366 | 108 nM | 0.295 nM
2 | K([γGlu-γGlu-C20 diacid])CNTATCATQRLADFLRHSSNPFGAPLSSTNVGSDTY-NH2 (disulfide 2-7; N-terminus assumed; SMILES CC(C)C[C@H](NC(=O)[C@H](CCCNC(=N)N)NC(=O)[C@H](CCC(N)=O)NC(=O)[C@@H](NC(=O)[C@H](C)NC(=O)[C@@H]1CSSC[C@H](NC(=O)[C@@H](N)CCCCNC(=O)CC[C@H](NC(=O)CC[C@H](NC(=O)CCCCCCCCCCCCCCCCCCC(=O)O)C(=O)O)C(=O)O)C(=O)N[C@@H](CC(N)=O)C(=O)N[C@@H]([C@@H](C)O)C(=O)N[C@@H](C)C(=O)N[C@@H]([C@@H](C)O)C(=O)N1)[C@@H](C)O)C(=O)N[C@@H](C)C(=O)N[C@@H](CC(=O)O)C(=O)N[C@@H](Cc1ccccc1)C(=O)N[C@@H](CC(C)C)C(=O)N[C@@H](CCCNC(=N)N)C(=O)N[C@@H](Cc1c[nH]cn1)C(=O)N[C@@H](CO)C(=O)N[C@@H](CO)C(=O)N[C@@H](CC(N)=O)C(=O)N1CCC[C@H]1C(=O)N[C@@H](Cc1ccccc1)C(=O)NCC(=O)N[C@@H](C)C(=O)N1CCC[C@H]1C(=O)N[C@@H](CC(C)C)C(=O)N[C@@H](CO)C(=O)N[C@@H](CO)C(=O)N[C@H](C(=O)N[C@@H](CC(N)=O)C(=O)N[C@H](C(=O)NCC(=O)N[C@@H](CO)C(=O)N[C@@H](CC(=O)O)C(=O)N[C@H](C(=O)N[C@@H](Cc1ccc(O)cc1)C(N)=O)[C@@H](C)O)C(C)C)[C@@H](C)O, modifications are with respect to human amylin; also called compound 3) | 17.3 | 16.7 | 16.7 nM | 1 nM
3 | K([γGlu-C20 diacid])CNTATCATQRLANFLRHSSPNFGAIPSSTNVGSKTY-NH2 (disulfide 2-7; N-terminus assumed; SMILES CC[C@H](C)[C@H](NC(=O)[C@H](C)NC(=O)CNC(=O)[C@H](Cc1ccccc1)NC(=O)[C@H](CC(N)=O)NC(=O)[C@@H]1CCCN1C(=O)[C@H](CO)NC(=O)[C@H](CO)NC(=O)[C@H](Cc1c[nH]cn1)NC(=O)[C@H](CCCNC(=N)N)NC(=O)[C@H](CC(C)C)NC(=O)[C@H](Cc1ccccc1)NC(=O)[C@H](CC(N)=O)NC(=O)[C@H](C)NC(=O)[C@H](CC(C)C)NC(=O)[C@H](CCCNC(=N)N)NC(=O)[C@H](CCC(N)=O)NC(=O)[C@@H](NC(=O)[C@H](C)NC(=O)[C@@H]1CSSC[C@H](NC(=O)[C@@H](N)CCCCNC(=O)CC[C@H](NC(=O)CCCCCCCCCCCCCCCCCCC(=O)O)C(=O)O)C(=O)N[C@@H](CC(N)=O)C(=O)N[C@@H]([C@@H](C)O)C(=O)N[C@@H](C)C(=O)N[C@@H]([C@@H](C)O)C(=O)N1)[C@@H](C)O)C(=O)N1CCC[C@H]1C(=O)N[C@@H](CO)C(=O)N[C@@H](CO)C(=O)N[C@H](C(=O)N[C@@H](CC(N)=O)C(=O)N[C@H](C(=O)NCC(=O)N[C@@H](CO)C(=O)N[C@@H](CCCCN)C(=O)N[C@H](C(=O)N[C@@H](Cc1ccc(O)cc1)C(N)=O)[C@@H](C)O)C(C)C)[C@@H](C)O, modifications are with respect to human amylin; also called compound 35) [N^ε1-[(4S)-4-carboxy-4-(19-carboxynonadecanoylamino)butanoyl]-[Arg17,Pro21,Pro27,Lys35]-h-amylin] | 50.3 | 65.1 | 61.7 nM | 0.948 nM

More lines, in order of falling IC50 (rat calcitonin receptor [3]), values ahead:

Row | Ratio hCT/hAmylin binding [1] | Ratio rCT/rAmylin binding (rat calcitonin receptor [2]) | IC50 (rat calcitonin receptor [3]) | IC50 [4] | Binder
4 | 27.6 | 104 | 135 nM | 1.3 nM | K([γGlu-γGlu-C20 diacid])CNTATCATQRLADFLRHSSPNFGAPLSSTNVGSDTY-NH2 (disulfide 2-7; N-terminus assumed; SMILES CC(C)C[C@H](NC(=O)[C@H](CCCNC(=N)N)NC(=O)[C@H](CCC(N)=O)NC(=O)[C@@H](NC(=O)[C@H](C)NC(=O)[C@@H]1CSSC[C@H](NC(=O)[C@@H](N)CCCCNC(=O)CC[C@H](NC(=O)CC[C@H](NC(=O)CCCCCCCCCCCCCCCCCCC(=O)O)C(=O)O)C(=O)O)C(=O)N[C@@H](CC(N)=O)C(=O)N[C@@H]([C@@H](C)O)C(=O)N[C@@H](C)C(=O)N[C@@H]([C@@H](C)O)C(=O)N1)[C@@H](C)O)C(=O)N[C@@H](C)C(=O)N[C@@H](CC(=O)O)C(=O)N[C@@H](Cc1ccccc1)C(=O)N[C@@H](CC(C)C)C(=O)N[C@@H](CCCNC(=N)N)C(=O)N[C@@H](Cc1c[nH]cn1)C(=O)N[C@@H](CO)C(=O)N[C@@H](CO)C(=O)N1CCC[C@H]1C(=O)N[C@@H](CC(N)=O)C(=O)N[C@@H](Cc1ccccc1)C(=O)NCC(=O)N[C@@H](C)C(=O)N1CCC[C@H]1C(=O)N[C@@H](CC(C)C)C(=O)N[C@@H](CO)C(=O)N[C@@H](CO)C(=O)N[C@H](C(=O)N[C@@H](CC(N)=O)C(=O)N[C@H](C(=O)NCC(=O)N[C@@H](CO)C(=O)N[C@@H](CC(=O)O)C(=O)N[C@H](C(=O)N[C@@H](Cc1ccc(O)cc1)C(N)=O)[C@@H](C)O)C(C)C)[C@@H](C)O, modifications are with respect to human amylin; also called compound 1)
5 | 41.3 | 147 | 90.2 nM | 0.614 nM | K([γGlu-C20 diacid])CNTATCATQRLANFLRHSSPNFGAIPSSTNVGSETY-NH2 (disulfide 2-7; N-terminus assumed; SMILES CC[C@H](C)[C@H](NC(=O)[C@H](C)NC(=O)CNC(=O)[C@H](Cc1ccccc1)NC(=O)[C@H](CC(N)=O)NC(=O)[C@@H]1CCCN1C(=O)[C@H](CO)NC(=O)[C@H](CO)NC(=O)[C@H](Cc1c[nH]cn1)NC(=O)[C@H](CCCNC(=N)N)NC(=O)[C@H](CC(C)C)NC(=O)[C@H](Cc1ccccc1)NC(=O)[C@H](CC(N)=O)NC(=O)[C@H](C)NC(=O)[C@H](CC(C)C)NC(=O)[C@H](CCCNC(=N)N)NC(=O)[C@H](CCC(N)=O)NC(=O)[C@@H](NC(=O)[C@H](C)NC(=O)[C@@H]1CSSC[C@H](NC(=O)[C@@H](N)CCCCNC(=O)CC[C@H](NC(=O)CCCCCCCCCCCCCCCCCCC(=O)O)C(=O)O)C(=O)N[C@@H](CC(N)=O)C(=O)N[C@@H]([C@@H](C)O)C(=O)N[C@@H](C)C(=O)N[C@@H]([C@@H](C)O)C(=O)N1)[C@@H](C)O)C(=O)N1CCC[C@H]1C(=O)N[C@@H](CO)C(=O)N[C@@H](CO)C(=O)N[C@H](C(=O)N[C@@H](CC(N)=O)C(=O)N[C@H](C(=O)NCC(=O)N[C@@H](CO)C(=O)N[C@@H](CCC(=O)O)C(=O)N[C@H](C(=O)N[C@@H](Cc1ccc(O)cc1)C(N)=O)[C@@H](C)O)C(C)C)[C@@H](C)O, modifications are with respect to human amylin; also called compound 27) [N^ε1-[(4S)-4-carboxy-4-(19-carboxynonadecanoylamino)butanoyl]-[Arg17,Pro21,Pro27,Glu35]-h-amylin]
